Numbering of substitutions follows the chain as printed.
Key:
[1] = molecular target: full-length VAR2CSA recombinant protein (3D7-DBL1X-6ε) (Plasmodium falciparum 3D7, UniProt Q8I639, strain); test: SPR
[2] = molecular target: native VAR2CSA on FCR3-CSA infected erythrocytes (Plasmodium falciparum FCR3, UniProt Q6UDW7, strain); test: flow cytometry on cells
3D7-DBL2X = 3D7-DBL2X (Plasmodium falciparum 3D7, UniProt Q8I639, strain); test: ELISA
FCR3-DBL3X = FCR3-DBL3X (Plasmodium falciparum FCR3, UniProt Q6UDW7, strain); test: ELISA

B1: VHH893 (VHH)
VHH: QVQLQESGGGLVQAGGSLRLSCAASGFTFDDYAIGWFRQAPGKEREGVSCISSGDGGTYYADSVKGRFTISSDNAENTVALQMNSLKPEDTAVYYCAAVYGSCWDGLLYRTDSYEYDGWGQGTQVTVSS
- Kd [1]: 27 nM
- koff [1]: 0.0017 s⁻¹
- kon [1]: 60000 M⁻¹ s⁻¹
- binding result [2]: no binding (tested: 100 µg/ml)

B2: VHH889 (VHH)
VHH: QVQLQESGGGLVQAGGSLRLSCAASGRSFSSYAMGWFRQAPGKEREFVATITWSGGSTYYADSVKGRFTISGDSAENTVYLQMNSLKPEDTAVYYCAADETSAPLYRAYEAQYDYWGQGTQVTVSS
- binding result (3D7-DBL2X): no binding (tested: 0.3 µg/ml)
- binding result (FCR3-DBL3X): no binding (tested: 0.3 µg/ml)
- Kd [1]: 700 nM
- koff [1]: 0.035 s⁻¹
- kon [1]: 54000 M⁻¹ s⁻¹
- binding result [2]: binds

B3: VHH867 (VHH)
VHH: QVQLQESGGGLVQAGGSLRLSCAASGFTLDDYGIGWFRQAPGKEREGVSFISSSDGTTDYADSVKGRFTISSDNAKNTVYLQMNSLKPEDTAVYYCAAVEQRVPFLSVLHEAIYDYWGQGTQVTVSS
- binding result (3D7-DBL2X): no binding (tested: 0.3 µg/ml)
- binding result (FCR3-DBL3X): no binding (tested: 0.3 µg/ml)
- Kd [1]: 300 nM
- koff [1]: 0.0027 s⁻¹
- kon [1]: 8690 M⁻¹ s⁻¹
- binding result [2]: binds

B4: VHH871 (VHH)
VHH: QVQLQESGGGLVQAGGSLRLSCAASGSIFSIHAMGWYRQAPGKQRELVAAITSGGSTNYGDSVKGRFTISEDNAKNTVYLQMNGLKPEDTAVYYCAADNDGLGYVYWGQGTQVTVSS
- binding result (3D7-DBL2X): no binding (tested: 0.3 µg/ml)
- binding result (FCR3-DBL3X): no binding (tested: 0.3 µg/ml)
- Kd [1]: 200 nM
- koff [1]: 3.9e-05 s⁻¹
- kon [1]: 216 M⁻¹ s⁻¹
- binding result [2]: binds

B5: VHH859 (VHH)
VHH: QVQLQESGGGLVQAGGSLRLSCAASGRTFSSYAMGWFRQAPGKEREFVAAISWNGSSTYYADSVKGRFTISRDNAKNTVYLQMNSLKPEDTAVYYCAANDLLVPELLMSRVEVYDYWGQGTQVTVSS
- binding result (3D7-DBL2X): no binding (tested: 0.3 µg/ml)
- binding result (FCR3-DBL3X): no binding (tested: 0.3 µg/ml)
- Kd [1]: 300 nM
- koff [1]: 0.0032 s⁻¹
- kon [1]: 12000 M⁻¹ s⁻¹
- binding result [2]: binds

B6: VHH895 (VHH)
VHH: QVQLQESGGGLVQAGGSLRVSCAASGRALSDYAMGWFRQTPGKEREFVAAISWNGGNTYYADSVKGRFTISRDNAENTVYLQMNSLKPEDTAVYYCAANDLAVPGLLMPRVETYDYWGQGTQVTVSS
- Kd [1]: 800 nM
- koff [1]: 87.2 s⁻¹
- kon [1]: 1.1e+08 M⁻¹ s⁻¹
- binding result [2]: binds

B7: VHH897 (VHH)
VHH: B6 VHH with V20I, A28T, L29F, T40A, G56D, E76K
- Kd [1]: 43 nM
- koff [1]: 0.0013 s⁻¹
- kon [1]: 31000 M⁻¹ s⁻¹
- binding result [2]: binds

B8: VHH860 (VHH)
VHH: B6 VHH with V20L, L29F, T40A, E46D, A61S, G105E
- binding result (3D7-DBL2X): no binding (tested: 0.3 µg/ml)
- binding result (FCR3-DBL3X): no binding (tested: 0.3 µg/ml)
- Kd [1]: 28 nM
- koff [1]: 0.0013 s⁻¹
- kon [1]: 46000 M⁻¹ s⁻¹
- binding result [2]: binds

B9: VHH891 (VHH)
VHH: QVQLQESGGGLVQTGDSLRLSCAASGRTFSSYAMGWFRQAPGKEREFVAAITWGDGSADYADSVKGRFTISRDNAENTVYLQMNSLKPEDTAVYYCAAETVGAPIYTLGYSEAYDYWGQGTQVTVSS
- binding result (3D7-DBL2X): no binding (tested: 0.3 µg/ml)
- binding result (FCR3-DBL3X): no binding (tested: 0.3 µg/ml)
- Kd [1]: 700 nM
- koff [1]: 0.0014 s⁻¹
- kon [1]: 2050 M⁻¹ s⁻¹
- binding result [2]: binds

Reference: PMC5376981 (Scientific Reports, 2014)
